{"source": "patent US20110091994A1", "about": "“Methods for Screening Compounds for Treating and/or Preventing an Hepatitis C Virus Infection” (priority 2008, published 2011);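 on IMAP Y2H IMAP1 (number of IST): yeast two-hybrid screens using HCV genotype 1b proteins fused to Gal4-DB as baits against prey cDNA libraries from human spleen and foetal brain, IMAP1 via transformation and IMAP2 via mating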;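 on IMAP Y2H IMAP2 (number of IST): yeast two-hybrid screens using HCV genotype 1b proteins fused to Gal4-DB as baits against prey cDNA libraries from human spleen and foetal brain, IMAP1 via transformation and IMAP2 via mating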;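 on Interaction with viral protein: yeast two-hybrid screens using HCV genotype 1b proteins fused to Gal4-DB as baits against prey cDNA libraries from human spleen and foetal brain, IMAP1 via transformation and IMAP2 via mating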", "molecules": {"B1": {"name": "CCHCR1 (protein, UniProt Q8TD31 1-782, looked up)", "Coiled-coil alpha-helical rod …": "MFPPSGSTGLIPPSHFQARPLSTLPRMAPTWLSDIPLVQPPGHQDVSERRLDTQRPQVTMWERDVSSDRQEPGRRGRSWGLEGSQALSQQAEVIVRQLQELRRLEEEVRLLRETSLQQKMRLEAQAMELEALARAEKAGRAEAEGLRAALAGAEVVRKNLEEGSQRELEEVQRLHQEQLSSLTQAHEEALSSLTSKAEGLEKSLSSLETRRAGEAKELAEAQREAELLRKQLSKTQEDLEAQVTLVENLRKYVGEQVPSEVHSQTWELERQKLLETMQHLQEDRDSLHATAELLQVRVQSLTHILALQEEELTRKVQPSDSLEPEFTRKCQSLLNRWREKVFALMVQLKAQELEHSDSVKQLKGQVASLQEKVTSQSQEQAILQRSLQDKAAEVEVERMGAKGLQLELSRAQEARRRWQQQTASAEEQLRLVVNAVSSSQIWLETTMAKVEGAAAQLPSLNNRLSYAVRKVHTIRGLIARKLALAQLRQESCPLPPPVTDVSLELQQLREERNRLDAELQLSARLIQQEVGRAREQGEAERQQLSKVAQQLEQELQQTQESLASLGLQLEVARQGQQESTEEAASLRQELTQQQELYGQALQEKVAEVETRLREQLSDTERRLNEARREHAKAVVSLRQIQRRAAQEKERSQELRRLQEEARKEEGQRLARRLQELERDKNLMLATLQQEGLLSRYKQQRLLTVLPSLLDKKKSVVSSPRPPECSASAPVAAAVPTRESIKGSLSVLLDDLQDLSEAISKEEAVCQGDNLDRCSSSNPQMSS"}, "B2": {"name": "CD5L (protein, UniProt O43866 20-347, looked up)", "CD5 antigen-like": "SPSGVRLVGGLHRCEGRVEVEQKGQWGTVCDDGWDIKDVAVLCRELGCGAASGTPSGILYEPPAEKEQKVLIQSVSCTGTEDTLAQCEQEEVYDCSHDEDAGASCENPESSFSPVPEGVRLADGPGHCKGRVEVKHQNQWYTVCQTGWSLRAAKVVCRQLGCGRAVLTQKRCNKHAYGRKPIWLSQMSCSGREATLQDCPSGPWGKNTCNHDEDTWVECEDPFDLRLVGGDNLCSGRLEVLHKGVWGSVCDDNWGEKEDQVVCKQLGCGKSLSPSFRDRKCYGPGVGRIWLDNVRCSGEEQSLEQCQHRFWGFHDCTHQEDVAVICSG"}, "B3": {"name": "CCDC52 (protein, UniProt Q8N0Z3 1-855, looked up)", "Spindle and …": "MSFVRVNRCGPRVGVRKTPKVKKKKTSVKQEWDNTVTDLTVHRATPEDLVRRHEIHKSKNRALVHWELQEKALKRKWRKQKPETLNLEKRRLSIMKEILSDQYQMQDVLEKSDHLIAAAKELFPRRRTGFPNVTVAPDSSQGPIVVNQDPITQSIFNESVIEPQALNDVDGEEEGTVNSQSGESENENELDNSLNSQSNTNTDRFLQQLTEENFELISKLWTDIQQKIATQSQITPPGTPSSALSSGEQRAALNATNAVKRLQTRLQPEESTETLDSSYVVGHVLNSRKQKQLLNKVKRKPNLHALSKPKKNISSGSTTSADLPNRTNSNLDVLKHMIHEVEHEMEEYERWTGREVKGLQSSQGLTGFTLSLVSSLCRLVRYLKESEIQLRKEVETRQQLEQVLGDHRELIDALTAEILRLREENAATQARLQQYMVTTDEQLISLTHAIKNCPVINNRQEIQASESGATGRRVMDSPERPVVNANVSVPLMFREEVAEFPQEELPVKLSQVPDPPDNMNLAKNFPAHIFEPAVLLTPPRQKSNLKFSPLQDVLRRTVQTRPAPRLPPTVEIIEKEQNWEEKTLPIDTDIQNSSEENRLFTQRWRVSHMGEDLENKTQAPFVNLSQPLCNSHSNTQQSRSPTFSEELPVLGDGQQLRTNESLIQRKDIMTRIADLTLQNSAIKAHMNNIIEPRGEQGDGLRELNKQESASDMTSTFPVAQSLTPGSMEERIAELNRQSMEARGKLLQLIEQQKLVGLNLSPPMSPVQLPLRAWTEGAKRTIEVSIPGAEAPESSKCSTVSPVSGINTRRSSGATGNSCSPLNATSGSGRFTPLNPRAKIEKQNEEGWFALSTHVS"}, "B4": {"name": "CCDC66 (protein, UniProt A2RUB6 1-948, looked up)", "Coiled-coil domain-containing …": "MNLGDGLKLETELLDGKTKLILSPYEHKSKISVKMGNKAKIAKCPLRTKTGHILKSTQDTCIGSEKLLQKKPVGSETSQAKGEKNGMTFSSTKDLCKQCIDKDCLHIQKEISPATPNMQKTRNTVNTSLVGKQKPHKKHITAENMKSSLVCLTQDQLQQILMTVNQGNRSLSLTENGKEAKSQYSLYLNSISNQPKDENIMGLFKKTEMVSSVPAENKSVLNEHQETSKQCEQKIAIENEWKPADIFSTLGERECDRSSLEAKKAQWRKELDEQVALKKKEKEVSEKWNDPWKKSESDKIIWEKHQILDQSRETVLLEHPFSAVKQELQRKWIEELNKQIEDDRQRKIEEKIIYSKGEEHDRWAMHFDSLKSYPGSQSQLFSQSTHKQPEYFCVSPDTQELADVSSVCTPTTGSQVEPSEEEHIAKPIKDVVMANSKKTNFLRSMTALLDPAQIEERDRRRQKQLEHQKAITAQVEEKRRKKQLEEEQRKKEEQEEELRLAQEREEMQKQYEEDILKQKQKEEIMTLKTNELFQTMQRAQELAQRLKQEQRIRELAQKGHDTSRLIKNLGVDTIQMEYNASNISNSRHDSDEISGKMNTYMNSTTSKKDTGVQTDDLNIGIFTNAESHCGSLMERDITNCSSPEISAELIGQFSTKKNKQELTQDKGASLEKENNRCNDQCNQFTRIEKQTKHMKKYPKRPDWNINKPPKRYIPASEKYPKQLQKQREEKKVRRQMELLHLVEKNNPGHLSQNRGISPEIFHSSHQETESKLRWHLVKKEEEPLNIHSFSKERSPSSPVPVVKNRTQQTQNTLHLPLKNSSYERENLISGSNQTELSSGISESSHFIPYVRTNEIYYLDPDAPLSGPSTQDPQYQNSQDCGQKRQLFDSDCVRDPLLNPNMVKNRDRQQAILKGLSELRQGLLQKQKELESSLLPLAENQEESFGSSF"}, "B5": {"name": "CHPF (protein, UniProt Q8IZ52 1-775, looked up)", "Chondroitin sulfate synthase 2": "MRASLLLSVLRPAGPVAVGISLGFTLSLLSVTWVEEPCGPGPPQPGDSELPPRGNTNAARRPNSVQPGAEREKPGAGEGAGENWEPRVLPYHPAQPGQAAKKAVRTRYISTELGIRQRLLVAVLTSQTTLPTLGVAVNRTLGHRLERVVFLTGARGRRAPPGMAVVTLGEERPIGHLHLALRHLLEQHGDDFDWFFLVPDTTYTEAHGLARLTGHLSLASAAHLYLGRPQDFIGGEPTPGRYCHGGFGVLLSRMLLQQLRPHLEGCRNDIVSARPDEWLGRCILDATGVGCTGDHEGVHYSHLELSPGEPVQEGDPHFRSALTAHPVRDPVHMYQLHKAFARAELERTYQEIQELQWEIQNTSHLAVDGDQAAAWPVGIPAPSRPASRFEVLRWDYFTEQHAFSCADGSPRCPLRGADRADVADVLGTALEELNRRYHPALRLQKQQLVNGYRRFDPARGMEYTLDLQLEALTPQGGRRPLTRRVQLLRPLSRVEILPVPYVTEASRLTVLLPLAAAERDLAPGFLEAFATAALEPGDAAAALTLLLLYEPRQAQRVAHADVFAPVKAHVAELERRFPGARVPWLSVQTAAPSPLRLMDLLSKKHPLDTLFLLAGPDTVLTPDFLNRCRMHAISGWQAFFPMHFQAFHPAVAPPQGPGPPELGRDTGRFDRQAASEACFYNSDYVAARGRLAAASEQEEELLESLDVYELFLHFSSLHVLRAVEPALLQRYRAQTCSARLSEDLYHRCLQSVLEGLGSRTQLAMLLFEQEQGNST"}, "B6": {"name": "CBY1 (protein, UniProt Q9Y3M2 1-126, looked up)", "Protein chibby homolog 1": "MPFFGNTFSPKKTPPRKSASLSNLHSLDRSTREVELGLEYGSPTMNLAGQSLKFENGQWIAETGVSGGVDRREVQRLRRRNQQLEEENNLLRLKVDILLDMLSESTAESHLMEKELDELRISRKRK"}}}
{"target": "T1, HCV ORFs (Gal4-DB fusions) (Hepatitis C virus genotype 1b, UniProt Q9WMX2)", "T1 construct": "expressed in transfected cells; host or cells: Saccharomyces cerevisiae MAV203 (IMAP1) / AH109 (IMAP2)", "T1 sequence (Q9WMX2 1027-1657)": "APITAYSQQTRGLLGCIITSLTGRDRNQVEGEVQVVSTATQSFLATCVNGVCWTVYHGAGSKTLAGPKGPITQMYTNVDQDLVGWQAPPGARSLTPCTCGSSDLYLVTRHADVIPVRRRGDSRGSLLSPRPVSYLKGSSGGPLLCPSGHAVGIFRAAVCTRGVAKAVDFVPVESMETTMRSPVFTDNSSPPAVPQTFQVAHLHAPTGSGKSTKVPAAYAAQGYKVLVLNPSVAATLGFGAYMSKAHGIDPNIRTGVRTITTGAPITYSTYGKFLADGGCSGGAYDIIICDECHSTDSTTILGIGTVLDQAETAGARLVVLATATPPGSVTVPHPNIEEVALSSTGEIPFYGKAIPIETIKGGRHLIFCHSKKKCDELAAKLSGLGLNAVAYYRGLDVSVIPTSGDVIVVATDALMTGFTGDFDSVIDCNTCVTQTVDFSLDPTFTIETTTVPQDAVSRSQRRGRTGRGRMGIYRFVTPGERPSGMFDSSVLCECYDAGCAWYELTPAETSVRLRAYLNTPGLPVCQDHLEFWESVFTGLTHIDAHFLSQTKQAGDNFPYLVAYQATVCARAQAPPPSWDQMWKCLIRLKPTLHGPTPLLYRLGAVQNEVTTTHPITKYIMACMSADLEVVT", "experiment": "not given", "type": "binding, HCV genotype 1b, isolate con1", "conditions": "HCV protein NS3 as bait; human protein as prey"}
{"molecule": "B1", "IMAP Y2H IMAP1 (number of IST)": 1, "IMAP Y2H IMAP2 (number of IST)": 2}
{"molecule": "B2", "IMAP Y2H IMAP1 (number of IST)": 1, "IMAP Y2H IMAP2 (number of IST)": 1}
{"molecule": "B3", "IMAP Y2H IMAP1 (number of IST)": 1}
{"molecule": "B4", "IMAP Y2H IMAP1 (number of IST)": 1, "IMAP Y2H IMAP2 (number of IST)": 4}
{"molecule": "B5", "IMAP Y2H IMAP1 (number of IST)": 1}
{"molecule": "B6", "IMAP Y2H IMAP1 (number of IST)": 2}
{"tested_on": "HCV ORFs (Gal4-DB fusions)", "experiment": "not given", "type": "binding, HCV genotype 1b, isolate con1", "conditions": "human protein listed by gene symbol; the value names the HCV protein it interacts with"}
{"molecule": "B1", "Interaction with viral protein": "NS3"}
{"molecule": "B2", "Interaction with viral protein": "NS3"}
{"molecule": "B3", "Interaction with viral protein": "NS3"}
{"molecule": "B4", "Interaction with viral protein": "NS3"}
{"molecule": "B5", "Interaction with viral protein": "NS3"}
{"molecule": "B6", "Interaction with viral protein": "NS3"}
{"target": "T2, HCV proteins (Hepatitis C virus genotype 1b, UniProt Q9WMX2)", "T2 construct": "expressed in transfected cells", "T2 sequence (Q9WMX2 1027-1657)": "as above", "experiment": "Validation by Y2H pairwise matrices;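 further: yeast two-hybrid pairwise tests of interactions first found in Y2H screens of HCV bait proteins against human cDNA libraries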", "type": "binding", "conditions": "validation of interaction with HCV protein NS3", "method": "A comprehensive interactome map between HCV and cellular proteins was generated by Y2H screens. Twenty seven constructs encoding full-length HCV mature proteins or discrete domains were cloned using a recombination-based cloning system (10) (FIG. 6). Four independent screens were performed with each HCV bait protein, probing two distinct human cDNA libraries (Supplementary Methods). […] Two validation methods were used to assess the confidence of the IMAP Y2H dataset."}
{"molecule": "B1", "Y2H matrices": "+"}
{"molecule": "B2", "Y2H matrices": "+"}
{"molecule": "B3", "Y2H matrices": "+"}
{"molecule": "B4", "Y2H matrices": "+"}
{"molecule": "B5", "Y2H matrices": "+"}
{"molecule": "B6", "Y2H matrices": "+"}
